The source of these data is patent publication US20090203580.

For data set [1], the system named is heat-inactivated alpha-1 antitrypsin.
Data set [2] concerns human alpha-1 antitrypsin (native, not heat-inactivated; clinical grade, e.g. Aralast).

Regarding “elastase (e.g., Sigma), species not stated”, the “elastase activity: hydrolysis of N-Succinyl-Ala-Ala-Ala-p-nitroanalide, absorbance at 410 nm” value in data set [1] is “combining HIAAT with elastase produced a curve similar to that of elastase alone”; in data set [2], “Combining native (NOT heat-inactivated) AAT ablated elastase processing of the N-Succinyl-Ala-Ala-Ala-p-nitroanalide substrate and blocked the increase in A410 nm”.
